From the supplement of paper PMC10567573

B1: ZNF232 (parent)
chain: GKAYGWCSELIRHRRVHARKEPSH

Variants of: B1
Test: protein stability index of a GFP-peptide fusion (GPS, HEK-293T) (PSI 1-6); higher = more stable
Conditions: c terminus: a fixed tail appended
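Also: lentivirally expressed fusions sorted by FACS into six bins by GFP to DsRed ratio, PSI derived from sequencing read proportions per bin multiplied by bin number.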

Protein stability index of substitutions, site by site:
R14: M 1.73 | T 2.62 | I 2.04 | S 2.27 | A 2.9 | E 2.86 | N 3.23 | Q 3.08 | C 1.86 | F 2.33 | P 2.95 | D 2.65 | L 2.03 | Y 2.05 | K 2.61 | H 2.77 | V 2.45 | W 1.94 | G 2.72
W6: F 3.65 | K 4.02 | R 3.7 | L 2.95 | I 3.27 | A 3.49 | V 3.59 | G 3.96 | D 4.05 | P 4.61 | T 3.69 | E 3.35 | S 3.65 | Y 2.95 | N 3.98 | C 2.6 | Q 3.81 | M 3.82 | H 3.67
R12: S 3.16 | A 2.82 | W 2.14 | T 3.1 | D 3.03 | N 3.36 | M 2.25 | G 2.92 | V 2.31 | Q 3.02 | H 3.24 | I 2.22 | L 2.65 | F 2.41 | Y 2.32 | K 3.17 | C 2.57 | P 3.21 | E 3.54
H17: I 2.51 | E 3.28 | T 3.28 | K 3.32 | G 3.57 | S 2.76 | L 2.99 | P 3.02 | R 3.03 | A 2.77 | W 1.87 | V 2.84 | F 2.49 | Q 3.04 | M 2.75 | Y 2.16 | N 2.72 | D 3.36 | C 3.46
S8: N 3.21 | F 1.97 | V 2.02 | D 3.22 | T 3.25 | E 3.2 | G 2.5 | R 2.99 | W 1.97 | I 1.57 | M 1.94 | K 2.6 | H 2.69 | P 3.21 | A 2.67 | C 2.14 | Y 2.34 | Q 3.36 | L 2.45
R19: H 2.66 | P 2.37 | W 2.15 | K 2.82 | F 2.15 | I 3.09 | Y 1.81 | C 2.68 | V 2.52 | E 3.53 | L 1.94 | T 2.89 | A 2.54 | M 3.18 | S 2.8 | G 3.01 | D 3.31 | N 3.81 | Q 3.44
E21: L 1.91 | Q 2.69 | W 2.19 | Y 2.81 | T 2.69 | I 2.46 | S 3.3 | R 3.3 | P 2.79 | M 2.37 | D 2.75 | A 2.92 | V 3.1 | C 2.36 | N 3.24 | F 2.04 | H 2.63 | K 3.15 | G 2.58
G5: Y 2.13 | V 2.22 | Q 3.09 | W 2.14 | T 2.79 | S 2.99 | P 3.25 | R 2.9
A18: W 1.83 | C 2.88 | M 3.25 | S 3.37 | G 3 | E 3.74 | R 3.28 | N 2.84 | H 2.86 | T 3.28 | L 2.13 | I 3.04 | K 3.19 | Y 2.76 | D 3.84 | V 2.59 | Q 2.81 | P 3.33 | F 2.49
I11: P 3.11 | A 3.41 | H 3.31 | G 3.35 | K 3.16 | T 3.34 | C 3.37 | S 3.8 | Y 2.9 | M 3.18 | E 3.43 | W 2.79 | F 2.79 | R 3.67 | V 2.92 | D 3.9 | L 2.61 | Q 4.02 | N 3.02
V16: E 3.16 | C 2.52 | W 2.55 | Y 2.74 | R 3.67 | Q 3.53 | S 3.48 | N 3.26 | T 3.07 | D 3.49 | M 3.43 | K 3.22 | G 3.53 | F 2.87 | P 3.35 | A 2.71 | L 2.9 | I 2.42 | H 3.41
K20: F 1.9 | Q 2.8 | I 2.05 | A 3.19 | Y 1.86 | T 3.28 | M 2.18 | C 2.6 | V 3.22 | N 2.58 | H 2.97 | E 3.07 | R 2.12 | D 3.45 | L 1.93 | S 2.86 | G 2.86 | P 2.62 | W 1.82
R15: S 3.36 | E 3.28 | H 2.92 | C 1.99 | V 2.44 | W 2.25 | Q 3.07 | P 3.25 | M 3.16 | L 2.02 | N 2.93 | I 2.56 | A 2.81 | Y 2.38 | F 2.45 | K 3 | G 2.61 | T 3.19 | D 2.61
L10: S 3.4 | N 3.54 | Y 2.22 | T 3.16 | E 2.84 | W 2.77 | K 3.08 | V 3.54 | A 3.08 | G 3.55 | I 2.84 | M 3.43 | C 2.15 | F 2.6 | D 3.5 | P 3.8 | H 3.64 | R 3.35 | Q 2.78
S23: D 3.66 | A 2.61 | C 2.58
H13: R 3.53 | C 2.39 | T 3.16 | D 2.99 | K 3.29 | F 1.94 | M 2.36 | Q 3.22 | P 2.75 | E 3.42 | I 1.89 | G 3.46 | S 2.57 | W 3.04 | Y 2.24 | V 2.1 | N 2.69 | A 2.62 | L 1.97
P22: Q 3.38 | S 3.21 | L 2.93 | K 2.92 | R 3.17 | M 2.3 | N 2.98 | W 1.79 | V 2.82 | I 2.27 | H 3.42 | G 2.71 | A 3.39 | T 3.02 | F 1.8 | C 2.52 | Y 3.58 | D 3.14 | E 4.22
C7: Y 2.57 | R 3.59 | E 3.67 | P 3.61 | W 3.05 | H 3.37 | T 3.26 | K 3.54 | I 2.17 | F 2.42 | L 2.34 | Q 3.18 | G 3.89 | A 3.3 | D 3.42 | S 3.82 | M 2.62 | V 2.06 | N 4.19
E9: C 1.76 | M 1.66 | K 2.96 | Q 2.64 | D 3.12 | S 3.02 | Y 2.18 | F 1.59 | I 2.51 | H 3.25 | A 2.74 | V 1.21 | L 2.73 | R 2.83 | G 3.03 | N 2.84 | W 1.81 | T 3.53 | P 3.24
